Numbering of substitutions follows the chain as printed.
Assays:
[1] = biological target: T1, GIPR A207V (human) (UniProt P48546)
T1 sequence: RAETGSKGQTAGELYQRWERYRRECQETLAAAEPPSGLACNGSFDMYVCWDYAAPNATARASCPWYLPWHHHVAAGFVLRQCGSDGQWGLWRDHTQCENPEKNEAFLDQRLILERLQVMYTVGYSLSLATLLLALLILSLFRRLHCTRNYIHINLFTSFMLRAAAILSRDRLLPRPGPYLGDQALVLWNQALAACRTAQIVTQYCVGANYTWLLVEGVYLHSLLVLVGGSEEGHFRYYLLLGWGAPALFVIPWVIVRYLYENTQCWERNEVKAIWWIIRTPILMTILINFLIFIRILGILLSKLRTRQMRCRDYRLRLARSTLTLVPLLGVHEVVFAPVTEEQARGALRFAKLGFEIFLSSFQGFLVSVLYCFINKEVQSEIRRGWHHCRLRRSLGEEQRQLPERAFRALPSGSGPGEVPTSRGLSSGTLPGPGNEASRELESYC

[2] = biological target: T2, GIPR A294V (human) (UniProt P48546)
T2 sequence: T1 sequence with V186A, A273V

[3] = biological target: T3, GIPR E354Q (human) (UniProt P48546)
T3 sequence: T1 sequence with V186A, E333Q

[4] = biological target: T4, GIPR K397N (human) (UniProt P48546)
T4 sequence: T1 sequence with V186A, K376N

[5] = biological target: GIPR R12Q (human) (UniProt P48546)
[6] = biological target: T5, GIPR R190Q (human) (UniProt P48546)
T5 sequence: T1 sequence with R169Q, V186A

[7] = biological target: T6, GIPR T168A (human) (UniProt P48546)
T6 sequence: T1 sequence with T147A, V186A

β-arrestin 2 recruitment (BRET) on stimulation with GIP(1-42): logEC50 (Arrestin) (log M (inferred)) [1]: -9.42 | β-arrestin 2 recruitment (BRET) on stimulation with GIP(1-42): logEC50 (Arrestin) (log M (inferred)) [2]: -9.01 | β-arrestin 2 recruitment (BRET) on stimulation with GIP(1-42): logEC50 (Arrestin) (log M (inferred)) [3]: -8.52 | β-arrestin 2 recruitment (BRET) on stimulation with GIP(1-42): logEC50 (Arrestin) (log M (inferred)) [4]: -8.9 | β-arrestin 2 recruitment (BRET) on stimulation with GIP(1-42): logEC50 (Arrestin) (log M (inferred)) [5]: -8.72 | β-arrestin 2 recruitment (BRET) on stimulation with GIP(1-42): logEC50 (Arrestin) (log M (inferred)) [6]: -8.86 | β-arrestin 2 recruitment (BRET) on stimulation with GIP(1-42): logEC50 (Arrestin) (log M (inferred)) [7]: -9.27
Substance: β-arrestin 2 (Rluc8-Arrestin-3-Sp1) (from UniProt P32121 1-409) (natural protein)

From PMC11272584 (Nature Metabolism, 2024)
